Reference: the Immune Epitope Database (IEDB)

What was measured:
HLA-B*07:02 = experiment: IEDB peptide-MHC binding, purified MHC/direct/fluorescence; filed as Kd, often an IC50 or EC50 that approximates it; ≥ and ≤ were set here for values at or beyond the usual limits of such assays
HLA-A*01:01 [1] = experiment: as above
HLA-A*02:01 [2] = experiment: IEDB peptide-MHC binding, purified MHC/competitive/fluorescence; ≥ and ≤ were set here for values at or beyond the usual limits of such assays
HLA-A*24:02 = experiment: IEDB peptide-MHC binding, purified MHC/competitive/radioactivity; filed as Kd, often an IC50 or EC50 that approximates it; ≥ and ≤ were set here for values at or beyond the usual limits of such assays
HLA-A*26:01 = experiment: as above
HLA-A*01:01 [3] = experiment: as above
HLA-A*30:02 = experiment: as above
HLA-B*51:01 = experiment: as above
HLA-A*11:01 = experiment: IEDB peptide-MHC binding, purified MHC/direct/fluorescence; filed as Kd, often an IC50 or EC50 that approximates it; ≥ and ≤ were set here for values at or beyond the usual limits of such assays; conditions: source organism: SARS-CoV1
HLA-B*58:01 = experiment: as above
HLA-B*27:05 = experiment: as above
HLA-B*15:01 [4] = experiment: IEDB peptide-MHC binding, purified MHC/competitive/radioactivity; filed as Kd, often an IC50 or EC50 that approximates it; ≥ and ≤ were set here for values at or beyond the usual limits of such assays
HLA-B*46:01 = experiment: IEDB peptide-MHC binding, purified MHC/direct/fluorescence; filed as Kd, often an IC50 or EC50 that approximates it; ≥ and ≤ were set here for values at or beyond the usual limits of such assays; conditions: source organism: Yellow fever virus
HLA-B*53:01 = experiment: IEDB peptide-MHC binding, purified MHC/competitive/radioactivity; filed as Kd, often an IC50 or EC50 that approximates it; ≥ and ≤ were set here for values at or beyond the usual limits of such assays
HLA-A*69:01 = experiment: IEDB peptide-MHC binding, purified MHC/direct/fluorescence; filed as Kd, often an IC50 or EC50 that approximates it; ≥ and ≤ were set here for values at or beyond the usual limits of such assays
HLA-A*02:01 [5] = experiment: as above
HLA-B*15:01 [6] = experiment: as above
HLA-A*02:06 = experiment: IEDB peptide-MHC binding, purified MHC/competitive/radioactivity; filed as Kd, often an IC50 or EC50 that approximates it; ≥ and ≤ were set here for values at or beyond the usual limits of such assays
HLA-A*02:02 = experiment: as above
HLA-A*02:03 = experiment: as above
[7] = source organism: Sudan ebolavirus
[8] = source organism: Dengue virus 1 Brazil/97-11/1997
[9] = source organism: Mammarenavirus brazilense
[10] = source organism: Dengue virus 2 Jamaica/1409/1983
[11] = source organism: Dengue virus 3 Martinique/1243/1999
[12] = source organism: Vaccinia virus WR
[13] = source organism: Zaire ebolavirus
[14] = source organism: Dengue virus 4 Dominica/814669/1981
[15] = source organism: Mycobacterium tuberculosis
[16] = source organism: Human betaherpesvirus 6B
[17] = source organism: Bacillus anthracis
[18] = source organism: Haemophilus influenzae
[19] = source organism: Dengue virus 4 Philippines/H241/1956
[20] = source organism: Entamoeba histolytica
[21] = source organism: Salmonella enterica subsp. enterica serovar Typhimurium
[22] = source organism: SARS coronavirus Tor2

## APRTLVLLL
HLA-B*07:02; source organism: Homo sapiens
  Kd: 145 nM

## ASLLRRWPK
HLA-A*01:01 [1]; source organism: Vibrio cholerae
  Kd: ≥ 20000 nM

## ASTVIYRGV
HLA-A*02:01 [2]; [7]
  IC50: 7440 nM

## DFPGKTVWF
HLA-A*24:02; [8]
  Kd: 8800 nM

## DPKRYFVPIF
HLA-A*26:01; [9]
  Kd: ≥ 69700 nM
HLA-A*01:01 [3]; [9]
  Kd: ≥ 70400 nM

## EKSAAIDGEY
HLA-A*30:02; [8]
  Kd: 49.3 nM
HLA-A*26:01; [8]
  Kd: 2040 nM
HLA-A*01:01 [3]; [8]
  Kd: 2420 nM

## ELCEDTITY
HLA-A*26:01; [10]
  Kd: 754 nM

## EPPFGESNI
HLA-B*51:01; [11]
  Kd: 11200 nM

## ERSDKSYEH
HLA-A*11:01
  Kd: 16800 nM
HLA-B*58:01; source organism: SARS-CoV1
  Kd: 1840 nM
HLA-B*27:05; source organism: SARS-CoV1
  Kd: 8450 nM

## ETLLLLGLMI
HLA-A*26:01; [11]
  Kd: ≥ 54400 nM

## FDFCEGTTVV
HLA-B*51:01; [10]
  Kd: 2650 nM

## FILTAILFF
HLA-B*15:01 [4]; [12]
  Kd: 181 nM

## FMAILQHHQ
HLA-A*02:01 [2]; [13]
  IC50: 1080 nM

## FTPEARNSTF
HLA-A*24:02; [14]
  Kd: 4150 nM
HLA-A*26:01; [14]
  Kd: 518 nM

## GGFSTLDKI
HLA-A*02:01 [2]; source organism: Variola virus
  IC50: ≥ 124000 nM

## GMMGGLWKY
HLA-B*46:01
  Kd: ≥ 20000 nM

## GPRTRGYAI
HLA-B*07:02; [15]
  Kd: 9 nM

## GRSCTEETF
HLA-B*27:05; source organism: Mammarenavirus juninense
  Kd: ≥ 20000 nM

## GTGPCAGDF
HLA-A*02:01 [2]; [13]
  IC50: ≥ 512000 nM

## IANELNYILW
HLA-B*53:01; [11]
  Kd: 79.9 nM

## ICDDVLSKY
HLA-A*69:01; [16]
  Kd: 2690 nM
HLA-A*01:01 [1]; [16]
  Kd: 3180 nM

## ILNGGLGNA
HLA-A*69:01; [17]
  Kd: ≥ 20000 nM
HLA-A*02:01 [5]; [17]
  Kd: 317 nM

## ILYDTGSSW
HLA-B*58:01; [18]
  Kd: 92.8 nM
HLA-B*15:01 [6]; [18]
  Kd: 119 nM
HLA-A*02:01 [5]; [18]
  Kd: 10200 nM

## IMILKLLTDF
HLA-B*15:01 [4]; source organism: Dengue virus 1 Singapore/S275/1990
  Kd: 12.4 nM

## IPHDLMEFI
HLA-B*51:01; [19]
  Kd: 20.4 nM
HLA-B*53:01; [19]
  Kd: 6.39 nM

## ISTIGIRPS
HLA-A*02:01 [2]; [7]
  IC50: ≥ 116000 nM

## IVFATAARY
HLA-B*15:01 [6]; [15]
  Kd: 161 nM

## IWLKLRDSY
HLA-A*30:02; [8]
  Kd: 673 nM

## KIMASENSS
HLA-A*02:01 [2]; [13]
  IC50: ≥ 119000 nM

## KQLESVMYL
HLA-A*69:01; [20]
  Kd: ≥ 20000 nM
HLA-A*02:01 [5]; [20]
  Kd: 4.8 nM

## KQPATLRKY
HLA-A*30:02; [10]
  Kd: 416 nM

## KQTGSASSM
HLA-B*15:01 [4]; [10]
  Kd: 10.8 nM

## KSKKYEGPF
HLA-B*15:01 [4]; [12]
  Kd: 1.86 nM

## KTSQVPKLL
HLA-A*02:01 [2]; source organism: Variola virus
  IC50: 23500 nM

## KVVQPENLEY
HLA-B*15:01 [4]; source organism: Dengue virus 2 16681-PDK53
  Kd: 30 nM

## LAESVKMHM
HLA-B*15:01 [4]; [12]
  Kd: 963 nM

## LAKKTLAPF
HLA-B*15:01 [4]; [12]
  Kd: 2.13 nM

## LAMGCYSQV
HLA-B*51:01; [19]
  Kd: 140 nM

## LANTNFFVF
HLA-B*15:01 [4]; [12]
  Kd: 17 nM

## LHPASAWTLY
HLA-A*30:02; [8]
  Kd: 53.7 nM

## LLSSTRVPNY
HLA-A*30:02; [19]
  Kd: 2170 nM
HLA-A*01:01 [3]; [19]
  Kd: 2260 nM

## LPETLETLL
HLA-B*53:01; [10]
  Kd: 918 nM

## LPVWLAHKV
HLA-B*51:01; [11]
  Kd: 126 nM
HLA-B*53:01; [11]
  Kd: 831 nM

## LQKGGVIVY
HLA-B*15:01 [6]; [18]
  Kd: 478 nM

## LSIPHDLMEF
HLA-B*15:01 [4]; [19]
  Kd: 5.99 nM
HLA-A*01:01 [3]; [19]
  Kd: ≥ 36200 nM

## LTPKAQREI
HLA-A*02:01 [2]; source organism: Variola virus
  IC50: ≥ 71400 nM

## LVCKDHLAS
HLA-A*02:01 [2]; [7]
  IC50: ≥ 185000 nM

## MISRMLINRF
HLA-A*26:01; [10]
  Kd: 8330 nM

## MLIEVILTA
HLA-B*15:01 [4]; [12]
  Kd: 207 nM

## MLSEGRMNS
HLA-A*02:01 [2]; source organism: Vaccinia virus
  IC50: 6520 nM

## MMIDDFGTA
HLA-B*15:01 [4]; [12]
  Kd: 7.6 nM

## MMLAQAYYG
HLA-A*69:01; [21]
  Kd: 3190 nM
HLA-B*15:01 [6]; [21]
  Kd: 5780 nM
HLA-A*02:01 [5]; [21]
  Kd: 273 nM

## MPLVMAWRT
HLA-B*51:01; [19]
  Kd: 693 nM
HLA-B*53:01; [19]
  Kd: 88.4 nM

## MSFRDLGRVM
HLA-B*51:01; [10]
  Kd: ≥ 38300 nM

## NAVTTNNLL
HLA-A*02:06; [12]
  Kd: 202 nM
HLA-A*02:02; [12]
  Kd: 1850 nM
HLA-A*02:03; [12]
  Kd: ≥ 24900 nM

## NGLITSTVT
HLA-A*02:01 [2]; [7]
  IC50: ≥ 118000 nM

## NIEIMDKEQL
HLA-A*02:06; [12]
  Kd: 5650 nM
HLA-A*02:02; [12]
  Kd: 3470 nM
HLA-A*02:03; [12]
  Kd: 15500 nM

## NLWNTFTRL
HLA-A*02:06; [22]
  Kd: 166 nM
HLA-A*02:02; [22]
  Kd: 24 nM
HLA-A*02:03; [22]
  Kd: 194 nM

## NLYISDYKM
HLA-A*02:06; [12]
  Kd: 11000 nM
HLA-A*02:02; [12]
  Kd: 2790 nM
HLA-A*02:03; [12]
  Kd: ≥ 25300 nM

## NVLAWLYAA
HLA-A*02:06; [22]
  Kd: 1.58 nM
HLA-A*02:02; [22]
  Kd: 7.31 nM
HLA-A*02:03; [22]
  Kd: 15.3 nM

## PLTYLEYPI
HLA-A*02:01 [5]; source organism: Homo sapiens
  Kd: 2860 nM

## PPTAGVLARW
HLA-B*53:01; [11]
  Kd: 4930 nM

## PTLFGRGVI
HLA-A*02:06; [12]
  Kd: ≥ 64800 nM
HLA-A*02:02; [12]
  Kd: ≥ 30300 nM
HLA-A*02:03; [12]
  Kd: 6730 nM

## QGDNDNWWT
HLA-A*02:01 [2]; [13]
  IC50: ≥ 283000 nM

## QLSGLGINAV
HLA-A*02:01 [2]; source organism: Hepatitis C virus subtype 1b
  IC50: 123 nM
